Reference: patent US20250011869A1, “TLR3 INHIBITORS FOR USE IN THE TREATMENT OF DISEASES ASSOCIATED WITH CARDIOVASCULAR CALCIFICATION” (priority 2021, published 2025)

How the values were obtained:
[1] = target: T1, human TLR3 ectodomain (huTLR3-ECD) (Homo sapiens, UniProt O15455); experiment: In vitro binding by co-immunoprecipitation; conditions: purified TLR3 ectodomain and purified BGN
T1 construct: The human TLR3-ECD (27-700) was modified with an N-terminal gb67 leader and a C-terminal 6× poly histidine tag; gb67 (gp67) secretion leader (N); 6xHis (C); made in house; host or cells: Sf21 insect cells (baculovirus, pFastBac1, Bac-to-Bac)
Procedure: The human TLR3-ECD (27-700) was modified with an N-terminal gb67 leader and a C-terminal 6× poly histidine tag and the sequence was produced synthetically (Geneart) and cloned into a pFastBac1 vector. The virus was generated and amplified at large scale levels using a Sf21 insect cell-line (Bac-to-Bac®). One liter Sf21 cell culture was infected and harvested at 72 hours. The culture was centrifuged at 1000×g for 30 min and the supernatant was filtered through a 0.2 μm nitrocellulose membrane. The filtrate was loaded onto a 5 ml His Trap EXCEL column (GE, 17-3712-06) using a peristaltic pump. […] The protein fractions were analyzed by SDS-PAGE and TLR3 containing fractions were pooled and concentrated to a final volume of ˜500 μl using a spin concentrator (Vivaspin®20) with a 10 kDa molecular weight cut-off. […] TLR3 containing fractions were analyzed by SDS-PAGE and pooled and concentrated to 1 mg/ml. Protein concentration was estimated using a Nano Drop by measuring the absorbance at 280 nm (MW=[…], ε=61.9 mol^−1 cm^−1).
The human BGN (38-368) was modified with an N-terminal Secrecon tag followed by a 6× poly histidine tag and a Strep-Tag II. […] The protein fractions were analyzed by SDS-PAGE and BGN containing fractions were pooled and concentrated to a final volume of ˜500 μl using a spin concentrator (Vivaspin®20) with a 10 kDa molecular weight cut-off. […]

[2] = target: TLR3 (Homo sapiens, UniProt O15455); experiment: HEK293 hTLR3 reporter cell assay (TLR3/ISRE LUCPorter, luminometer); type: cell-based; conditions: putative ligands at increasing concentrations, 24 h (biglycan 5, 10, 20 μg/ml)
Procedure: All cells were cultivated under standard conditions (37° C., supplied with 5% CO2). Passaging of the cells was performed at 70-90% confluency, and cells were only used until passage 7 as described previously^6. Polyinosinic: polycytidylic acid (Poly(I:C); Invivogen, San Diego, CA) was used to stimulate cells at a concentration of either 20 μg/mL or 5 μg/ml, depending on the assay. For blockade of TLR3, the commercially available dsRNA/TLR3 inhibitor ((R)-2-(3-Chloro-6-fluorobenzo [b] thiophene-2-carboxamido)-3-phenyl-propanoic acid) was used (Merck, Darmstadt, Germany) at a concentration of 1 μg/ml as described previously^1,7. LY294002 (Invivogen, San Diego, CA), a PI3K inhibitor, was used at a concentration of 10 μM. For blockade of IFNAR1, a specific blocking antibody (Invitrogen, Carlsbad, CA) was used at a concentration of 4 μg/ml. A stable HEK (human embryonic kidney) reporter cell line (TLR3/ISRE LUCPorter; Imgenex, USA) was purchased for luminometer assay experiments. Cells were cultivated according to the manufacturer's protocol in DMEM with 4.5 g/L glucose (Lonza, Switzerland), 10% FCS (Sigma, St. Louis, MO), penicillin/streptomycin, and 4 mM L-glutamine and […] puromycin (Gibco, USA) as selection agent. Reporter experiments were performed as described previously^8. […]

[3] = target: T1, human TLR3 ectodomain (huTLR3-ECD); experiment: In vitro binding by size exclusion chromatography and immunoblot; conditions: chondroitinase ABC digested BGN incubated with TLR3 ECD

B1: BGN: proteoglycan biglycan (BGN), a structural protein of the extracellular matrix (ECM) (protein)
chain: DEEASGAETTSGIPDLDSLPPTYSAMCPFGCHCHLRVVQCSDLGLKAVPKEISPDTTLLDLQNNDISELRKDDFKGLQHLYALVLVNNKISKIHEKAFSPLRKLQKLYISKNHLVEIPPNLPSSLVELRIHDNRIRKVPKGVFSGLRNMNCIEMGGNPLENSGFEPGAFDGLKLNYLRISEAKLTGIPKDLPETLNELHLDHNKIQAIELEDLLRYSKLYRLGLGHNQIRMIENGSLSFLPTLRELHLDNNKLSRVPAGLPDLKLLQVVYLHTNNITKVGVNDFCPVGFGVKRAYYNGISLFNNPVPYWEVQPATFRCVTDRLAIQFGNYKK
[1]
  interaction with huTLR3-ECD by immunoprecipitation: confirmed this interaction
[2]
  activation of TLR3 reporter cells: activated TLR3 reporter cells in a dose-dependent fashion
[3]
  binding to huTLR3-ECD by size-exclusion chromatography followed by immunoblotting: co-elution
[3]; listed as huBGN
  binding to huTLR3-ECD by size-exclusion chromatography followed by immunoblotting: weak binding interaction
